Source: patent US20090298079A1 (METHERESIS TRANSLATIONAL RESEARCH, published 2009)

B1: HGF-α (ligand)
chain: QRKRRNTIHEFKKSAKTTLIKIDPALKIKTKKVNTADQCANRCTRNKGLPFTCKAFVFDKARKQCLWFPFNSMSSGVKKEFGHEFDLYENKDYIRNCIIGKGRSYKGTVSITKSGIKCQPWSSMIPHEHSFLPSSYRGKDLQENYCRNPRGEEGGPWCFTSNPEVRYEVCDIPQCSEVECMTCNGESYRGLMDHTESGKICQRWDHQTPHRHKFLPERYPDKGFDDNYCRNPDGQPRPWCYTLDPHTRWEYCAIKTCADNTMNDTDVPLETTECIQGQGEGYRGTVNTIWNGIPCQRWDSQYPHEHDMTPENFKCKDLRENYCRNPDGSESPWCFTTDPNIRVGYCSQIPNCDMSHGQDCYRGNGKNYMGNLSQTRSGLTCSMWDKNMEDLHRHIFWEPDASKLNENYCRNPDDDAHGPWCYTGNPLIPWDYCPISRCEGDTEQKLISEEDLNHHHHHHH
notes: range 32-473; also called HGF α-chain; HGF-α MYC his
B2: HGF NK1 (ligand)
chain: QRKRRNTIHEFKKSAKTTLIKIDPALKIKTKKVNTADQCANRCTRNKGLPFTCKAFVFDKARKQCLWFPFNSMSSGVKKEFGHEFDLYENKDYIRNCIIGKGRSYKGTVSITKSGIKCQPWSSMIPHEHSFLPSSYRGKDLQENYCRNPRGEEGGPWCFTSNPEVRYEVCDIPQEQKLISEEDLNHHHHHHH
notes: range 32-205; also called HGF-NK1 MYC his; monomeric NK1

Experiments:
Sema-PSI = molecular target: T1, Sema-PSI (UniProt P08581 25-562); assay: ELISA, receptor in solid phase, MYC-tagged ligand in liquid phase, anti-MYC detection
T1 construct: range 25-562; also called Sema-PSI FLAG.his; SP
Protocol: All engineered receptors and factors were collected from the conditioned medium of lentiviral vector-transduced […] human melanoma cells in the absence of serum. Factor purification was performed by immobilized-metal affinity chromatography as previously described in Michieli P. et al. (2002) Nat Biotechnol. 20(5), 488-495. Conversion of pro-HGF into active HGF was performed by incubating purified pro-HGF (maximal concentration 100 ng/μl) with 2-10% FBS (Sigma, St. Louis, Mo.) at 37° C. for 24 hours. Factor conversion was analyzed by Western blotting using anti-HGF antibodies (R&D Systems, Minneapolis, Minn.). […] Binding of engineered ligands to soluble receptors was measured by ELISA using FLAG-tagged soluble receptors in solid phase and MYC-tagged engineered ligands in liquid phase. […] Binding data were analyzed and fit using Prism software (Graph Pad Software, San Diego, Calif.).
(§1) To determine the affinity of each Met module for pro-HGF, HGF-α, HGF NK1 and HGF-β and to compare it with that for active HGF, engineered receptors were immobilized in solid phase and exposed to increasing concentrations of MYC-tagged ligands. […] Non-specific binding was determined using the kringle-containing protein angiostatin (AS) also tagged with a MYC epitope—in liquid phase. […] Binding of HGF-β to decoy Met (or to any other Met domain) was too low to be detected in this kind of assay. […]

Decoy Met = molecular target: T2, Decoy Met (UniProt P08581 25-932); assay: ELISA, Decoy Met in solid phase, MYC-tagged ligand in liquid phase, anti-MYC detection
T2 construct: range 25-932; Soluble FLAG- and His-tagged receptor, purified from conditioned medium of transduced cells; also called decoy met FLAG.his; DM
Protocol: (§2) Factor purification was performed by immobilized-metal affinity chromatography as previously described in Michieli P. et al. (2002) Nat Biotechnol. 20(5), 488-495. Conversion of pro-HGF into active HGF was performed by incubating purified pro-HGF (maximal concentration 100 ng/μl) with 2-10% FBS (Sigma, St. Louis, Mo.) at 37° C. for 24 hours. Factor conversion was analyzed by Western blotting using anti-HGF antibodies (R&D Systems, Minneapolis, Minn.). Uncleavable HGF subjected to the same incubation with FBS was used as pro-HGF in all assays that compared active HGF with unprocessed HGF. Binding of engineered ligands to soluble receptors was measured by ELISA using FLAG-tagged soluble receptors in solid phase and MYC-tagged engineered ligands in liquid phase. […] Binding data were analyzed and fit using Prism software (Graph Pad Software, San Diego, Calif.).
as §1

IPT = molecular target: T3, IPT (UniProt P08581 563-932); assay: ELISA, IPT in solid phase, MYC-tagged ligand in liquid phase, anti-MYC detection
T3 construct: range 563-932; also called IPT FLAG.his; soluble IPT
Protocol: as §2, §1

Row | binding result (Sema-PSI) | fold reduced affinity compared to active HGF (Decoy Met) | fold less tightly than active HGF (IPT) | Binder
1 | no binding | 4 fold | – | B1
2 | no binding | 10 fold | 10 fold | B2
